Data on 5 sequences can be found in the supplement of paper PMC5998384.

Series [1] has as its system HeLa Kyoto. The series can be described thus: thermal stability score vs G1/S (z-score of summed log2 fold changes over temperatures); higher = more thermally stable than in G1/S.
Series [2] relates to HeLa Kyoto. In words: melting temperature (median over replicates), in situ; higher = more thermally stable.
Series [3] deals with HeLa Kyoto. In words: solubility in G1/S (NP-40 vs SDS abundance) (log2 ratio); higher = more soluble. To be noted: cell cycle stage: G1/S.
In series [4] the test system is HeLa Kyoto. The series can be described thus: solubility change mitosis vs G1/S (difference of NP-40 vs SDS log2 ratios) (log2 ratio difference); higher = more soluble in mitosis.
The mark [5] stands for this setting: cell cycle stage: early G1 (4.5 h after nocodazole release).
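Throughout, for melting temperature (median over replicates), in situ: HeLa Kyoto cells synchronized by double thymidine or nocodazole block, proteins quantified by TMT10plex mass spectrometry, three independent biological replicates.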
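Throughout, for solubility change mitosis vs G1/S (difference of NP-40 vs SDS log2 ratios): synchronized HeLa Kyoto cells (double thymidine block for G1/S, nocodazole release for mitosis), protein amounts in NP-40 versus SDS lysates quantified by mass spectrometry, three biological replicates.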
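Throughout, for solubility in G1/S (NP-40 vs SDS abundance): HeLa Kyoto cells arrested at G1/S by double thymidine block, proteins quantified by TMT10plex mass spectrometry in mild NP-40 versus SDS extracts, three biological replicates.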
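Throughout, for thermal stability score vs G1/S (z-score of summed log2 fold changes over temperatures): synchronized HeLa Kyoto cells, proteins quantified by TMT10plex mass spectrometry, three biological replicates, mitosis taken 0.5 h after nocodazole release, G1/S directly after double thymidine block.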

As to “MSGVRAVRISIESACEKQVHEVGLDGTETYLPPLSMSQNLARLAQRIDFSQGSGSEEEEAAGTEGDAQEWPGAGSSADQDDEEGVVKFQPSLWPWDSVRNNLRSALTEMCVLYDVLSIVRDKKFMTLDPVSQDALPPKQNPQTLQLISKKKSLAGAAQILLKGAERLTKSVTENQENKLQRDFNSELLRLRQHWKLRKVGDKILGDLSYRSAGSLFPHHGTFEVIKNTDLDLDKKIPEDYCPLDVQIPSDLEGSAYIKVSIQKQAPDIGDLGTVNLFKRPLPKSKPGSPHWQTKLEAAQNVLLCKEIFAQLSREAVQIKSQVPHIVVKNQIISQPFPSLQLSISLCHSSNDKKSQKFATEKQCPEDHLYVLEHNLHLLIREFHKQTLSSIMMPHPASAPFGHKRMRLSGPQAFDKNEINSLQSSEGLLEKIIKQAKHIFLRSRAAATIDSLASRIEDPQIQAHWSNINDVYESSVKVLITSQGYEQICKSIQLQLNIGVEQIRVVHRDGRVITLSYQEQELQDFLLSQMSQHQVHAVQQLAKVMGWQVLSFSNHVGLGPIESIGNASAITVASPSGDYAISVRNGPESGSKIMVQFPRNQCKDLPKSDVLQDNKWSHLRGPFKEVQWNKMEGRNFVYKMELLMSALSPCLL [MED17]”, the thermal stability score with HeLa Kyoto [1] (setting [5]) worked out at 0.0203; in the series with HeLa Kyoto [1] (cell cycle stage: mitosis), 0.644. Also, the melting temperature with HeLa Kyoto [2] (cell cycle stage: G1/S) is 50.4 °C; in the series on HeLa Kyoto [2] (cell cycle stage: mitosis) it was 49.7 °C. The “solubility in G1/S (log2)” value in the series on HeLa Kyoto [3] amounted to 0.0389. In the series with HeLa Kyoto [4], the “solubility change mitosis (log2)” value is -0.0898.

As for “MSHPDYRMNLRPLGTPRGVSAVAGPHDIGASPGDKKSKNRSTRGKKKSIFETYMSKEDVSEGLKRGTLIQGVLRINPKKFHEAFIPSPDGDRDIFIDGVVARNRALNGDLVVVKLLPEEHWKVVKPESNDKETEAAYESDIPEELCGHHLPQQSLKSYNDSPDVIVEAQFDGSDSEDGHGITQNVLVDGVKKLSVCVSEKGREDGDAPVTKDETTCISQDTRALSEKSLQRSAKVVYILEKKHSRAATGFLKLLADKNSELFRKYALFSPSDHRVPRIYVPLKDCPQDFVARPKDYANTLFICRIVDWKEDCNFALGQLAKSLGQAGEIEPETEGILTEYGVDFSDFSSEVLECLPQGLPWTIPPEEFSKRRDLRKDCIFTIDPSTARDLDDALSCKPLADGNFKVGVHIADVSYFVPEGSDLDKVAAERATSVYLVQKVVPMLPRLLCEELCSLNPMSDKLTFSVIWTLTPEGKILDEWFGRTIIRSCTKLSYEHAQSMIESPTEKIPAKELPPISPEHSSEEVHQAVLNLHGIAKQLRQQRFVDGALRLDQLKLAFTLDHETGLPQGCHIYEYRESNKLVEEFMLLANMAVAHKIHRAFPEQALLRRHPPPQTRMLSDLVEFCDQMGLPVDFSSAGALNKSLTQTFGDDKYSLARKEVLTNMCSRPMQMALYFCSGLLQDPAQFRHYALNVPLYTHFTSPIRRFADVLVHRLLAAALGYRERLDMAPDTLQKQADHCNDRRMASKRVQELSTSLFFAVLVKESGPLESEAMVMGILKQAFDVLVLRYGVQKRIYCNALALRSHHFQKVGKKPELTLVWEPEDMEQEPAQQVITIFSLVEVVLQAESTALKYSAILKRPGTQGHLGPEKEEEESDGEPEDSSTS [DIS3L2]”, the thermal stability score in the series on HeLa Kyoto [1] (setting [5]) was -0.153; in the series with HeLa Kyoto [1] (cell cycle stage: mitosis), -0.198. For the same sequence, the melting temperature with HeLa Kyoto [2] (cell cycle stage: G1/S) was 50.6 °C; with HeLa Kyoto [2] (cell cycle stage: mitosis) it was 50.5 °C. Moreover, the “solubility in G1/S (log2)” value with HeLa Kyoto [3] was -0.0925. In the series on HeLa Kyoto [4], the “solubility change mitosis (log2)” value was -0.1.

With “MSIMSYNGGAVMAMKGKNCVAIAADRRFGIQAQMVTTDFQKIFPMGDRLYIGLAGLATDVQTVAQRLKFRLNLYELKEGRQIKPYTLMSMVANLLYEKRFGPYYTEPVIAGLDPKTFKPFICSLDLIGCPMVTDDFVVSGTCAEQMYGMCESLWEPNMDPDHLFETISQAMLNAVDRDAVSGMGVIVHIIEKDKITTRTLKARMD [PSMB3]”, the thermal stability score in the series with HeLa Kyoto [1] (setting [5]) was -1.89; in the series with HeLa Kyoto [1] (cell cycle stage: mitosis), -1.25. Also, the values for the melting temperature with HeLa Kyoto [2] (cell cycle stage: G1/S) and with HeLa Kyoto [2] (cell cycle stage: mitosis) were 59.9 °C and 62.6 °C, respectively. Also, the “solubility in G1/S (log2)” value with HeLa Kyoto [3] came to 0.275. Also, in the series on HeLa Kyoto [4], the “solubility change mitosis (log2)” value is -0.241.

Turning to “MSKGPGPGGSAASSAPPAATAQVLQAQPEKPQHYTYLKEFRTEQCPLFVQHKCTQHRPYTCFHWHFVNQRRRRSIRRRDGTFNYSPDVYCTKYDEATGLCPEGDECPFLHRTTGDTERRYHLRYYKTGICIHETDSKGNCTKNGLHCAFAHGPHDLRSPVYDIRELQAMEALQNGQTTVEGSIEGQSAGAASHAMIEKILSEEPRWQETAYVLGNYKTEPCKKPPRLCRQGYACPYYHNSKDRRRSPRKHKYRSSPCPNVKHGDEWGDPGKCENGDACQYCHTRTEQQFHPEIYKSTKCNDMQQSGSCPRGPFCAFAHVEQPPLSDDLQPSSAVSSPTQPGPVLYMPSAAGDSVPVSPSSPHAPDLSALLCRNSSLGSPSNLCGSPPGSIRKPPNLEGIVFPGESGLAPGSYKKAPGFEREDQVGAEYLKNFKCQAKLKPHSLEPRSQEQPLLQPKQDMLGILPAGSPLTSSISSSITSSLAATPPSPVGTSSVPGMNANALPFYPTSDTVESVIESALDDLDLNEFGVAALEKTFDNSTVPHPGSITIGGSLLQSSAPVNIPGSLGSSASFHSASPSPPVSLSSHFLQQPQGHLSQSENTFLGTSASHGSLGLNGMNSSIWEHFASGSFSPGTSPAFLSGPGAAELARLRQELDEANSTIKQWEESWKQAKQACDAWKKEAEEAGERASAAGAECELAREQRDALEVQVKKLQEELERLHAGPEPQALPAFSDLEALSLSTLYSLQKQLRAHLEQVDKAVFHMQSVKCLKCQEQKRAVLPCQHAALCELCAEGSECPICQPGRAHTLQS [UNK]”, the values for the thermal stability score in the series with HeLa Kyoto [1] (setting [5]) and in the series on HeLa Kyoto [1] (cell cycle stage: mitosis) were 0.349 and 1.68, respectively. In addition, the figures for the melting temperature in the series with HeLa Kyoto [2] (cell cycle stage: G1/S) and in the series with HeLa Kyoto [2] (cell cycle stage: mitosis) were 51 °C and 50.9 °C, respectively. Also, the “solubility in G1/S (log2)” value in the series on HeLa Kyoto [3] was 0.0454. Also, in the series on HeLa Kyoto [4], the “solubility change mitosis (log2)” value is -0.0731.

In the case of “MSKRHRLDLGEDYPSGKKRAGTDGKDRDRDRDREDRSKDRDRERDRGDREREREKEKEKELRASTNAMLISAGLPPLKASHSAHSTHSAHSTHSTHSAHSTHAGHAGHTSLPQCINPFTNLPHTPRYYDILKKRLQLPVWEYKDRFTDILVRHQSFVLVGETGSGKTTQIPQWCVEYMRSLPGPKRGVACTQPRRVAAMSVAQRVADEMDVMLGQEVGYSIRFEDCSSAKTILKYMTDGMLLREAMNDPLLERYGVIILDEAHERTLATDILMGVLKEVVRQRSDLKVIVMSATLDAGKFQIYFDNCPLLTIPGRTHPVEIFYTPEPERDYLEAAIRTVIQIHMCEEEEGDLLLFLTGQEEIDEACKRIKREVDDLGPEVGDIKIIPLYSTLPPQQQQRIFEPPPPKKQNGAIGRKVVVSTNIAETSLTIDGVVFVIDPGFAKQKVYNPRIRVESLLVTAISKASAQQRAGRAGRTRPGKCFRLYTEKAYKTEMQDNTYPEILRSNLGSVVLQLKKLGIDDLVHFDFMDPPAPETLMRALELLNYLAALNDDGDLTELGSMMAEFPLDPQLAKMVIASCDYNCSNEVLSITAMLSVPQCFVRPTEAKKAADEAKMRFAHIDGDHLTLLNVYHAFKQNHESVQWCYDNFINYRSLMSADNVRQQLSRIMDRFNLPRRSTDFTSRDYYINIRKALVTGYFMQVAHLERTGHYLTVKDNQVVQLHPSTVLDHKPEWVLYNEFVLTTKNYIRTCTDIKPEWLVKIAPQYYDMSNFPQCEAKRQLDRIIAKLQSKEYSQY [DHX15]”, the thermal stability score in the series on HeLa Kyoto [1] (setting [5]) is 0.104; in the series on HeLa Kyoto [1] (cell cycle stage: mitosis) it was 1.61. Further, the figures for the melting temperature with HeLa Kyoto [2] (cell cycle stage: G1/S) and in the series on HeLa Kyoto [2] (cell cycle stage: mitosis) were 53.9 °C and 53.7 °C, respectively. Further, the “solubility in G1/S (log2)” value with HeLa Kyoto [3] was -0.42. For the same sequence, in the series with HeLa Kyoto [4], the “solubility change mitosis (log2)” value is 0.272.
